# Data published in patent US20180155451A1 (published 2018).
# T1: FcγRIIb, extracellular domain with C-terminal His tag (human, UniProt P31994 43-217)
# T1 construct: extracellular domain; also called 2b; FcgRIIb; not shown: His tag at the C terminus
# T1 sequence (looked up): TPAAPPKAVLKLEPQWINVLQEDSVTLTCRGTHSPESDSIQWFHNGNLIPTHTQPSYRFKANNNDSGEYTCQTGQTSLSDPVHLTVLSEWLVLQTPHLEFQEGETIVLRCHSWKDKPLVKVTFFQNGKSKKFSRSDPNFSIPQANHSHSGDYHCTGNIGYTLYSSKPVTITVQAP
# T2: FcγRIIa H (FcγRIIa type H, His at position 131), extracellular domain with C-terminal His tag (human, UniProt P12318 34-217)
# T2 construct: extracellular domain; also called 2aH; FcgRIIa H; not shown: His tag at the C terminus
# T2 sequence (looked up): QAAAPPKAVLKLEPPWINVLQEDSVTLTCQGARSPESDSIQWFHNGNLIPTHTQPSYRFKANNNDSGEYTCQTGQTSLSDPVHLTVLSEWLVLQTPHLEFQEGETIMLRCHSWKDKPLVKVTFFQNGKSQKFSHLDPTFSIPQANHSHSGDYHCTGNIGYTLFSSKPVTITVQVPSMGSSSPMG
# How the values were obtained:
# [1] = biological target: T1, FcγRIIb, extracellular domain with …; assay: SPR (Biacore), antibody captured on antigen-peptide chip, FcγR as analyte; GpH7-A5/GpH7-B3/GpL16-k0 = 100
# Method: (§1) The heterodimerized antibodies He Abs in which one of the H chains was introduced with an alteration were assayed for their binding activities to each activating FcγR and inhibitory FcγR according to the method described in Example 4. […] The activating FcγRs in FIGS. 26, 27, 28, and 29 are FcγRIa, FcγRIIa (R), FcγRIIa (H), and FcγRIIIa, respectively.
# (§2) Analysis of interaction between objective antibody and the FcγR was carried out using Biacore T100 (GE Healthcare). HBS-EP+ (GE Healthcare) was used as the running buffer, and the measurement temperature was set to 25° C. Chips produced by immobilizing the antigen peptide by the amine coupling method to a Series S Sencor Chip CM5 (GE Healthcare), or alternatively, chips produced by allowing preliminarily biotinylated antigen peptides to interact with and immobilize onto a Series S Sensor Chip SA (certified) (GE Healthcare) were used. Antibodies of interest were captured onto an antigen peptide-immobilized chip, and allowed to interact to each FcγR diluted with running buffer. To regenerate and repeatedly use the chip, the antibodies captured on the chip were washed off by reacting 10 mM glycine-HCl, pH 1.5.
# [2] = biological target: T2, FcγRIIa H (FcγRIIa type H, His at …); assay: as above
# Method: as §1, §2
Binder,He/Con_2b (relative binding activity) [1],He/Con_2aH (relative binding activity) [2]
"GpH7-A5/GpH7-B3 variant H268_01G/GpL16-k0 (antibody, human IgG1, kappa, Heterodimerized IgG1 (He Ab); mutation only in the GpH7-B3 chain; also called He Ab H268G) heavy 1: not shown heavy 2: not shown light: DIVMTQSPLSLPVTPGEPASISCQASESLVHSNRNTYLHWYLQKPGQSPQLLIYKVSNRFSGVPDRFSGSGSGTDFTLKISRVEAEDVGVYYCSQNTHVPPTFGQGTKVEIERTVAAPSVFIFPPSDEQLKSGTASVVCLLNNFYPREAKVQWKVDNALQSGNSQESVTEQDSKDSTYSLSSTLTLSKADYEKHKVYACEVTHQGLSSPVTKSFNRGEC",144 % of control,99.2 % of control
"GpH7-A5/GpH7-B3 variant H268_03V/GpL16-k0 (antibody, human IgG1, kappa, Heterodimerized IgG1 (He Ab); mutation only in the GpH7-B3 chain; also called He Ab H268V) heavy 1: not shown heavy 2: not shown light: DIVMTQSPLSLPVTPGEPASISCQASESLVHSNRNTYLHWYLQKPGQSPQLLIYKVSNRFSGVPDRFSGSGSGTDFTLKISRVEAEDVGVYYCSQNTHVPPTFGQGTKVEIERTVAAPSVFIFPPSDEQLKSGTASVVCLLNNFYPREAKVQWKVDNALQSGNSQESVTEQDSKDSTYSLSSTLTLSKADYEKHKVYACEVTHQGLSSPVTKSFNRGEC",114 % of control,99.2 % of control
"GpH7-A5/GpH7-B3 variant H268_05P/GpL16-k0 (antibody, human IgG1, kappa, Heterodimerized IgG1 (He Ab); mutation only in the GpH7-B3 chain; also called He Ab H268P) heavy 1: not shown heavy 2: not shown light: DIVMTQSPLSLPVTPGEPASISCQASESLVHSNRNTYLHWYLQKPGQSPQLLIYKVSNRFSGVPDRFSGSGSGTDFTLKISRVEAEDVGVYYCSQNTHVPPTFGQGTKVEIERTVAAPSVFIFPPSDEQLKSGTASVVCLLNNFYPREAKVQWKVDNALQSGNSQESVTEQDSKDSTYSLSSTLTLSKADYEKHKVYACEVTHQGLSSPVTKSFNRGEC",116 % of control,81.8 % of control
"GpH7-A5/GpH7-B3 variant H268_20W/GpL16-k0 (antibody, human IgG1, kappa, Heterodimerized IgG1 (He Ab); mutation only in the GpH7-B3 chain; also called He Ab H268W) heavy 1: not shown heavy 2: not shown light: DIVMTQSPLSLPVTPGEPASISCQASESLVHSNRNTYLHWYLQKPGQSPQLLIYKVSNRFSGVPDRFSGSGSGTDFTLKISRVEAEDVGVYYCSQNTHVPPTFGQGTKVEIERTVAAPSVFIFPPSDEQLKSGTASVVCLLNNFYPREAKVQWKVDNALQSGNSQESVTEQDSKDSTYSLSSTLTLSKADYEKHKVYACEVTHQGLSSPVTKSFNRGEC",111 % of control,95.8 % of control
"GpH7-A5/GpH7-B3 variant K326_03V/GpL16-k0 (antibody, human IgG1, kappa, Heterodimerized IgG1 (He Ab); mutation only in the GpH7-B3 chain; also called He Ab K326V) heavy 1: not shown heavy 2: not shown light: DIVMTQSPLSLPVTPGEPASISCQASESLVHSNRNTYLHWYLQKPGQSPQLLIYKVSNRFSGVPDRFSGSGSGTDFTLKISRVEAEDVGVYYCSQNTHVPPTFGQGTKVEIERTVAAPSVFIFPPSDEQLKSGTASVVCLLNNFYPREAKVQWKVDNALQSGNSQESVTEQDSKDSTYSLSSTLTLSKADYEKHKVYACEVTHQGLSSPVTKSFNRGEC",175 % of control,97 % of control
"GpH7-A5/GpH7-B3 variant K326_04F/GpL16-k0 (antibody, human IgG1, kappa, Heterodimerized IgG1 (He Ab); mutation only in the GpH7-B3 chain; also called He Ab K326F) heavy 1: not shown heavy 2: not shown light: DIVMTQSPLSLPVTPGEPASISCQASESLVHSNRNTYLHWYLQKPGQSPQLLIYKVSNRFSGVPDRFSGSGSGTDFTLKISRVEAEDVGVYYCSQNTHVPPTFGQGTKVEIERTVAAPSVFIFPPSDEQLKSGTASVVCLLNNFYPREAKVQWKVDNALQSGNSQESVTEQDSKDSTYSLSSTLTLSKADYEKHKVYACEVTHQGLSSPVTKSFNRGEC",155 % of control,97 % of control
"GpH7-A5/GpH7-B3 variant K326_05P/GpL16-k0 (antibody, human IgG1, kappa, Heterodimerized IgG1 (He Ab); mutation only in the GpH7-B3 chain; also called He Ab K326P) heavy 1: not shown heavy 2: not shown light: DIVMTQSPLSLPVTPGEPASISCQASESLVHSNRNTYLHWYLQKPGQSPQLLIYKVSNRFSGVPDRFSGSGSGTDFTLKISRVEAEDVGVYYCSQNTHVPPTFGQGTKVEIERTVAAPSVFIFPPSDEQLKSGTASVVCLLNNFYPREAKVQWKVDNALQSGNSQESVTEQDSKDSTYSLSSTLTLSKADYEKHKVYACEVTHQGLSSPVTKSFNRGEC",126 % of control,98.8 % of control
"GpH7-A5/GpH7-B3 variant K326_08L/GpL16-k0 (antibody, human IgG1, kappa, Heterodimerized IgG1 (He Ab); mutation only in the GpH7-B3 chain; also called He Ab K326L) heavy 1: not shown heavy 2: not shown light: DIVMTQSPLSLPVTPGEPASISCQASESLVHSNRNTYLHWYLQKPGQSPQLLIYKVSNRFSGVPDRFSGSGSGTDFTLKISRVEAEDVGVYYCSQNTHVPPTFGQGTKVEIERTVAAPSVFIFPPSDEQLKSGTASVVCLLNNFYPREAKVQWKVDNALQSGNSQESVTEQDSKDSTYSLSSTLTLSKADYEKHKVYACEVTHQGLSSPVTKSFNRGEC",177 % of control,92.7 % of control
